These results are taken from the DeepSol protein solubility set.

A short description of this data set: soluble on expression in E. coli; label from the status in PepcDB or PDB records.
On to “MSLKITQIQAQNKNKNRRNVFVDGSYEFSCDMEIILKYKLKEGLEIDRTKLLQVIDQSKEEFAFRLALNYLSFKSRTSFEIYTYLLKKEYEEKIIEKVIEKLKYYRYVDDNQYVLNYIKTALAEGKKGKDRVQSDLINKKIPQDMIESHMHLFSCETNLEIAKELSNKYFKQNAHLPFNQFKNKLSQFLMRKGFNWEIINTCLNILEQDSEEGHHHHHH”, for which the “soluble on expression in E. coli” value is “soluble”.

“MSLKITSIETIPIKVPIKPEFAIRSGRGGSHVVSPFLLVKVHTDAGITGLGEVSCTPRWSGEDQVSAAHFIKTYLAPLLEGEDPRQIESLTAKFRLGVAGNFFTKSGIEMALWDIAGKAAGKPVYELLGGTVREFIPTKWSVSGQEPDKAADIARWAVAQGFKAMKVKVGIEPDKDVARVAAVRAAIGSQIKLGVDANGGWSREVAASTIERLYASSIYFAEQPIPPEDLLYLPELRKQLKVPIIADESIYSLQDAMTLAHLQAADVFSIYVGKAGGIGPARKIAQFAESVGLKCTVGSNLELGIGSAAMIHLAIATHAIDAESYPCDIIGPMFYEDDMLVEPLPIVAGKAQPNSKPGLGVELNEKTVEKYRVCEGHHHHHH”: the “soluble on expression in E. coli” value is on record as “soluble”.

“MSLKKFYHLVVRILSKMITPQVIDKPHIVFMMTFPEDIKPIIKALNNSSYQKTVLTTPKQAPYLSELSDDVDVIEMTNRTLVKQIKALKSAQMIIIDNYYLLLGGYNKTSNQHIVQTWHASGALKNFGLTDHQVDVSDKAMVQQYRKVYQATDFYLVGCEQMSQCFKQSLGATEEQMLYFGLPRINKYYTADRATVKAELKDKYGITNKLVLYVPTYREDKADNRAIDKAYFEKCLPGYTLINKLHPSIEDSDIDDVSSIDTSTLMLMSDIIISDYSSLPIEASLLDIPTIFYVYDEGTYDQVRGLNQFYKAIPDSYKVYTEEDLIMTIQEKEHLLSPLFKDWHKYNTDKSLHQLTEYIDKMVTKEGGSHHHHHH”: the “soluble on expression in E. coli” value is “soluble”.

Consider “MSLKKLVIFDLDGTLLNTIADLAHSTNYALNKLGYPTHEIEKYNFMVGNGIDKLFERALPEGEKSKENVLRVRKEFVPYYDIHNADDSRPYPGIPELLSYLQDAGIQITVASNKYQAATQKLIDHYFPEIHFTAVFGQREGIKVKPDPTVVFDILEVAKVTKEEVLYVGDSGVDMQTAANAGVTVCGVTWGFRPRAELEEFSPQYIVDTAEEIKRLILEGHHHHHH”, for which the “soluble on expression in E. coli” value is “soluble”.

With “MSLKKQRIVVKIGSSSLTNSKGSIDEAKIREHVQAISVLKKAGHEMILITSGAVAAGFSSLGYPSRPVTIKGKQAAAAVGQTLLMQQYMNQFKQYSLTPGQILLTRNDFSKRERYRNAYATIMELLERGVIPIINENDSTSVEELTFGDNDMLSALVSGLIHADQLMILTDINGLYDANPNENPEAKRFDYLPEITPELLGYAGSAGSKVGTGGMKSKLLATQTALSLGVKVFIGTGSGEQKLADILDGRGDGTYIGDKELSSVNNTRQWIQFHSPISGEIIIDAGAEEAMIHNGSSLLPAGVVGVNGSFPKGAVVEVRGPGGVIGKGQTHYSSEEIMEAKGKRSDELDFEKTFEVIHEGHHHHHH”, the “soluble on expression in E. coli” value was “soluble”.

Take “MSLKLHKGIKEYECKECHRRFAQKVNMLKHCKRHTGIKDFMCELCGKTFSERNTMETHKLIHTVGKQWTCSVCDKKYVTEYMLQKHVQLTHDKVEAQSCQLCGTKVSTRASMSRHMRRKHPEVLAVRIDDLDHLPETTTIDASSIGIVQPELTLEQEDLAEGKHGKAAKRSHKRKQKPEEEAGAPVPEDATFSEYSEKETEFTGSVGDETNSAVQSIQQVVVTLGDPNVTTPSSSVGLTNITVTPITTAAATQFTNLQPVAVGHLTTPERQLQLDNSILTVTFDTVSGSAMLHNRQNDVQIHPQPEASNPQSVAHFINLTTLVNSITPLGSQLSDQHPLTWRAVPQTDVLPPSQPQAPPQQAAQPQVQAEQQQQQMYSYEGHHHHHH”: the “soluble on expression in E. coli” value is recorded as “not soluble”.

On to “MSLKLTVVGLGYIGLPTSIMFAKHGVDVLGVDINQQTIDKLQSGQISIEEPGLQEVYEEVLSSGKLKVSTTPEASDVFIIAVPTPNNDDQYRSCDISLVMRALDSILPFLEKGNTIIVESTIAPKTMDDFVKPVIENLGFTIGEDICLVHCPERVLPGKILEELVHNNRIIGGVTKACIEAGKYVYRTFVQGEMIETDARTAEMSKLMENTYRDVNIALANELTKICNNLNINVLDVIEMANKHPRVNIHQPGPGVGGHCLAVDPYFIIAKDPENAKLIQTGREINNSMPAYVVDTTKQIIKALSGNKVTVFGLTYKGDVDDIRESPAFDIYELLNQEPDIEVCAYDPHVELDFVEHDMSHAVKDASLVLILSDHSEFKNLSDSHFDKMKHKVIFDTKNVVKSSFEDVSYYNYGNIFNFIDKEGHHHHHH”, for which the “soluble on expression in E. coli” value was “soluble”.

For the sequence “MSLKLVEILVLGQVLRLNVPIEQEELLRQAARNLDILVSEMKEKTGLIQLDRVLSIVALNLSFELSQEKNKTAKIEEVLRTGIQQLDHSLENIRVTKEPH”, the “soluble on expression in E. coli” value was “soluble”.

Take “MSLKNEIQFEVFGDYALFTDPLTKIGGEKLSYSVPTYQALKGIVESIYWKPTIIFTIDKLRVMKPIQMESKGVRPIDYGGGNTLAHYTYLKDVHYQVKAHFDFNFNRPDLAFDRNEGKHYSILQRSLKAGGRRDIFLGTRECQGYVAPCEFGSGSGYYDGQGEYRLGTMVHGFNYPDETGQNQLDVRLWPAVMNDGYIKFPKPEDCTMIRPIKEMEPKEFKRDDIQSVEQLSYEVGGEEGHHHHHH”: the “soluble on expression in E. coli” value is “soluble”.

On to “MSLKNIVFDIGNVLLKFTPVEFLKSKYKDDKLVEALYENVFKSNEWVELDRGTITEEEATCRFCKRDPHNAKYIREVMETWNEMHVPVEGTSELMKELREKGYKIYLLSNYHLKAFKLISDKYDFIRDVDGGIISSKVKLLKPELEIYKALTNSCGIKPEESIFIDDREENVEAAIKLGFNGIVFKDAYELKGKFDELGIAIEGHHHHHH”, for which the “soluble on expression in E. coli” value is reported as “soluble”.

Consider “MSLKNLGSPVFFFQERPGKDGKPFKMVKFRSMRDALDSDGIPLPDGERLTPFGKKLRAASLDELPELWNILKGEMSLVGPRPLLMQYLPLYDNFQNRRHEMKPGITGWAQVNGRNALSWDEKFACDVWYIDHFSLCLDIKILLLTVKKVLIKEGISAQGEATMPPFTGKRKLAVVGAGGHGKVVADLAAALGRYREIVFLDDRAQGSVNGFSVIGTTLLLENSLSPEQYDVAVAVGNNRIRRQIAEKAAALGFALPVLVHPDATVSPSATVGQGSVVMAKAVVQAGSVLKDGVIVNTAATVDHDCLLNAFVHISPGAHLSGNTHIGEESWIGTGACSRQQIRIGSRATIGAGAVVVRDVSDGMTVAGNPAKPLPRKNPETSTAEGHHHHHH”, for which the “soluble on expression in E. coli” value is “not soluble”.

Regarding “MSLKNNEVAFYAMGGLGEIGKNMYCVQFQDEIIVIDCGVLFPEDELLGVDYVIQNYDYLIENKDKIKGIFITHGHEDHIGGLPFFLQKVNAPIYAGPFAMSLIKGKLEEKHLLRNAELHEINEFDEVHFKKLWVSFFRTTHSIPDTLGVAVHTPQGTIVQTGDFKFDLTPVGNLPGPNLQQMAKLGDDGVLLLTSDSTNAERPEFTKSERWVDIHIRRIFERIKGRIIFASFASNVYRLREASDAAIAQGRKIAVFGRSMENAITAGQELGYLNIPKDSLIDQNEINNYPPEKVLIMCTGSQGEPMAALSRIANGTHRQITIQPEDTVVFSSNPIPGNTTSVNALINKLEESGANVIHGYVNNIHTSGHGGQVDEEFMLRLMKPKFFAPVHGEYRMQKIHTKLAEMTGVPKENSFVLANGDVLALTKDSCRVADHIDSVSDVYIDGRDAGDTVGNPEIRERRLLSEEGVVTAIAVVDLKDYQIVAGPDIVSRGFVYMHESQELIKAANHEVFWAILNTFKNHKHIDQRVLNRTIISRLQKLLYDRTGRRPVIIPMVTILNGEGHHHHHH”, the “soluble on expression in E. coli” value is “soluble”.

As to “MSLKNNSEVFNVLHFSDIHIQLRYNVGAEANCTNLPCGAPDSYNKQLLPSSYNFSSYYQHFSPNVAKMEFSFYPDAHYDENSQYIKGDYYDFPLYRGWNFKNAPATSFGGYLTDSPAVLMNSSLISMAKMHKEKNFEFAIFTGDVVDHLLLSCTPEYTKEEEVKSFKAMKFFFNNLTVLPALGNHETGEYGQLSPIAYDFNGSYSWNQDEMVDLWINNEWFPAKDRYDLKSHYAGFSYVTNRGLKVIGLNSNAYYQKNLWSYIDLSTNPDLFGQWEFLVNELIESEEKGQRVWIMAHIPTTDYDTLPLQSRIFGKIVERFSPYTIANIFFAHTHMDQTHILYSTNSSKEAEDIINMSWVMQSVTPLANYNPSWRYYEVENESFNIINSFNYMTKLNDTFVNGGEEPVWEFEYSARELYDPKKTWPERAPLNATFWHKYVFERLRNESDIEFNQQYSNIRYREGHHHHHH”, the “soluble on expression in E. coli” value is listed as “not soluble”.
